{
  "source": "patent US20200308301A1",
  "about": "(Novartis, published 2020)",
  "key": {"NOV1401 [1]": {"molecular_target": "T1, NOV1401", "T1 construct": "It was amine-coupled to the chip in SPR, and used soluble and biotinylated in SET; also called anti-FXI/FXIa antibody NOV1401; anti-Factor XI/FXIa antibody NOV1401", "experiment": "Solution equilibrium titration (SET), 1:1 fit, average", "experimental": "(§1) 14 serial (2×) dilutions of NOV1401 were prepared in sample buffer (PBS pH 7.4 containing 0.5% (w/v) BSA and 0.02% Tween 20) and a constant concentration of the anti-NOV1401 Fab or IgG was added to each NOV1401 concentration ranging from 40 pM to 240 pM. Optimal constant anti-NOV1401 Fab or IgG concentrations and optimal starting concentrations for NOV1401 dilution series were determined in pilot experiments.\n(§2) After incubation and three times washing with PBST (PBS containing 0.05% Tween 20) 30 μl/well of the NOV1401/anti-NOV1401 Fab or IgG preparation was transferred from the polypropylene MTP to the NOV1401-coated SA plate and incubated for 30 min at RT on a MTP shaker. After three additional wash steps, 30 μl of 0.5 μg/ml detection antibody (Goat anti-human Kappa LC-HRP, BETHYL # A80-115P) diluted in sample buffer was added to each well and incubated for 1 h at RT with shaking. After washing the plate again three times, 30 μl of detection reagent (LumiGLO Peroxidase Chemiluminescent Substrate, KPL #54-61-01) was added to each well. Electrochemiluminescence (ECL) signals were generated and detected immediately with a luminescence imager (SpectraMax M5, Molecular Devices, LLC).\nAverage ECL-signals were calculated from duplicate measurements within each assay. Data were baseline adjusted by subtracting the lowest value from all data points and plotted against the corresponding antigen concentration. KD values were determined by fitting the plot with the following non-linear curve fitting model for 1:1 binding according to Haenel et al 2005: […]"}, "NOV1401 [2]": {"molecular_target": "T1, NOV1401", "experiment": "cell-based or functional assay"}, "NOV1401 [3]": {"molecular_target": "T1, NOV1401", "experiment": "cell-based or functional assay", "remark": "listed apart in the source"}, "NOV1401 [4]": {"molecular_target": "T1, NOV1401", "experiment": "SPR (ProteOn XPR36), NOV1401 immobilized, Fab as analyte, 1:1 Langmuir fit, average", "experimental": "SPR binding experiments were performed on a ProteOn XPR36 instrument (Bio-Rad Laboratories, Inc.) in PBS/T buffer (50 mM phosphate, 150 mM NaCl, pH 7.4, 0.005% v/v Tween-20) at 25° C. NOV1401 (‘Ligand’) was immobilized onto an activated ProteOn GLC sensor chip (Bio-Rad Laboratories, Inc.) using standard amine coupling procedures as described by the manufacturer. Briefly, NOV1401 was injected at a concentration of 10 μg/ml in 20 mM sodium acetate, pH 5.0 and at a flow rate of 30 μl/min for 10 min. Unreacted groups were blocked by injecting 1 M ethanolamine.\nFor kinetic studies anti-NOV1401 Fabs (‘Analytes’) were diluted in PBS/T buffer to generate a dilution series with concentrations ranging from 0.125-4 nM. Fabs were injected onto surfaces with immobilized NOV1401 at a flow rate of 100 μL/min and sensorgrams were recorded for association and dissociation times of 220 s and 1800 s, respectively. Blank surfaces were used for background corrections. There was no need to regenerate surfaces since the ProteOn protein interaction array system allows to run up to six binding experiments on an identical surface in parallel.\nData processing and analysis including kon, koff, and KD determination were performed with the ProteOn Manager™ software version 3.1.0.6."}, "NOV1401 [5]": {"molecular_target": "T1, NOV1401", "experiment": "SET (solution equilibrium titration): constant anti-NOV1401 Fab with a NOV1401 dilution series, free Fab captured on a biotinylated-NOV1401 streptavidin plate, luminescence (RLU), 1:1 fit", "experimental": "as §1\nas §2, with “After washing the plate again three times, 30 μl of detection reagent (LumiGLO Peroxidase Chemiluminescent Substrate, KPL #54-61-01) was added to each well.” left out\nAverage ECL-signals were calculated from duplicate measurements within each assay. […] KD values were determined by fitting the plot with the following non-linear curve fitting model for 1:1 binding according to Haenel et al 2005: […]"}},
  "data": [
    {"binder": "IDT2 (Fab, V domains shown, Fab; also called anti-NOV1401 Fab IDT2) VH: QVQLVESGGGLVKPGGSLRLSCAASGFTFSSAAVHWVRQAPGKGLEWVGRIKSKADGGTTDYAAPVKGRFTISRDDSKNTLYLQMNSLKTEDTAVYYCARDSPSISSYSIPYFSGMDVWGQGTLVTVSS VL: DIQMTQSPSSLSASVGDRVTITCRASQGIRAWLNWYQQKPGKAPKLLIYAASSLQSGVPSRFSGSGSGTDFTLTISSLQPEDFATYYCHQYITHPPTFGQGTKVEIKR", "values": [
      {"measurement": "Kd", "setting": "NOV1401 [1]", "result": 0.1, "unit": "nM"},
      {"measurement": "aPTT percentage reversal, NOV1401/anti NOV1401 ratio 1/1 (n/n)", "setting": "NOV1401 [2]", "result": 21, "unit": "%"},
      {"measurement": "aPTT percentage reversal, NOV1401/anti NOV1401 ratio 1/3 (n/n)", "setting": "NOV1401 [2]", "result": 42, "unit": "%"},
      {"measurement": "aPTT percentage reversal, NOV1401/anti NOV1401 ratio 1/10 (n/n)", "setting": "NOV1401 [2]", "result": 55, "unit": "%"},
      {"measurement": "TGA percentage reversal, NOV1401/anti NOV1401 ratio 1/1 (n/n)", "setting": "NOV1401 [3]", "result": 55, "unit": "%"},
      {"measurement": "TGA percentage reversal, NOV1401/anti NOV1401 ratio 1/3 (n/n)", "setting": "NOV1401 [3]", "result": 57, "unit": "%"},
      {"measurement": "TGA percentage reversal, NOV1401/anti NOV1401 ratio 1/10 (n/n)", "setting": "NOV1401 [3]", "result": 61, "unit": "%"},
      {"measurement": "Kd", "setting": "NOV1401 [4]", "result": 0.23, "unit": "nM"}
    ]},
    {"binder": "IDT9 (Fab, V domains shown, Fab; also called anti-NOV1401 Fab IDT9) VH: QVQLVQSGAEVKKPGASVKVSCKASGYTFTNYYVHWVRQAPGQGLEWMGWINPYNGNTNYAQKFQGRVTMTRDTSISTAYMELSRLRSEDTAVYYCARGASSIRMSYYLDVWGQGTLVTVSS VL: DIQMTQSPSSLSASVGDRVTITCRASQSISNYLNWYQQKPGKAPKLLIYAASNLQSGVPSRFSGSGSGTDFTLTISSLQPEDFATYYCFQYTHSPATFGQGTKVEIKR", "values": [
      {"measurement": "Kd", "setting": "NOV1401 [1]", "result": 0.68, "unit": "nM"},
      {"measurement": "aPTT percentage reversal, NOV1401/anti NOV1401 ratio 1/1 (n/n)", "setting": "NOV1401 [2]", "result": 10, "unit": "%"},
      {"measurement": "aPTT percentage reversal, NOV1401/anti NOV1401 ratio 1/3 (n/n)", "setting": "NOV1401 [2]", "result": 25, "unit": "%"},
      {"measurement": "aPTT percentage reversal, NOV1401/anti NOV1401 ratio 1/10 (n/n)", "setting": "NOV1401 [2]", "result": 46, "unit": "%"},
      {"measurement": "TGA percentage reversal, NOV1401/anti NOV1401 ratio 1/1 (n/n)", "setting": "NOV1401 [3]", "result": 41, "unit": "%"},
      {"measurement": "TGA percentage reversal, NOV1401/anti NOV1401 ratio 1/3 (n/n)", "setting": "NOV1401 [3]", "result": 61, "unit": "%"},
      {"measurement": "TGA percentage reversal, NOV1401/anti NOV1401 ratio 1/10 (n/n)", "setting": "NOV1401 [3]", "result": 72, "unit": "%"},
      {"measurement": "Kd", "setting": "NOV1401 [4]", "result": 1.92, "unit": "nM"}
    ]},
    {"binder": "IDT7 (Fab, V domains shown, Fab; also called anti-NOV1401 Fab IDT7) VH: QVQLVESGGGLVKPGGSLRLSCAASGFTFSSNAMHWVRQAPGKGLEWVGRIKSKTDGGTTDYAAPVKGRFTISRDDSKNTLYLQMNSLKTEDTAVYYCARDHYYYPFAYWGQGTLVTVSS VL: DIQMTQSPSSLSASVGDRVTITCRASQSIRYNLAWYQQKPGKAPKLLIYAASSLQSGVPSRFSGSGSGTDFTLTISSLQPEDFATYYCHQYIAKPITFGQGTKVEIKR", "values": [
      {"measurement": "Kd", "setting": "NOV1401 [1]", "result": 0.96, "unit": "nM"},
      {"measurement": "Kd", "setting": "NOV1401 [5]", "result": 0.16, "unit": "nM"},
      {"measurement": "aPTT percentage reversal, NOV1401/anti NOV1401 ratio 1/1 (n/n)", "setting": "NOV1401 [2]", "result": 16, "unit": "%"},
      {"measurement": "aPTT percentage reversal, NOV1401/anti NOV1401 ratio 1/3 (n/n)", "setting": "NOV1401 [2]", "result": 37, "unit": "%"},
      {"measurement": "aPTT percentage reversal, NOV1401/anti NOV1401 ratio 1/10 (n/n)", "setting": "NOV1401 [2]", "result": 54, "unit": "%"},
      {"measurement": "TGA percentage reversal, NOV1401/anti NOV1401 ratio 1/1 (n/n)", "setting": "NOV1401 [3]", "result": 50, "unit": "%"},
      {"measurement": "TGA percentage reversal, NOV1401/anti NOV1401 ratio 1/3 (n/n)", "setting": "NOV1401 [3]", "result": 66, "unit": "%"},
      {"measurement": "TGA percentage reversal, NOV1401/anti NOV1401 ratio 1/10 (n/n)", "setting": "NOV1401 [3]", "result": 71, "unit": "%"},
      {"measurement": "Kd", "setting": "NOV1401 [4]", "result": 0.33, "unit": "nM"}
    ]},
    {"binder": "IDT4 (Fab, V domains shown, Fab; also called anti-NOV1401 Fab IDT4) VH: QVQLVESGGGLVKPGGSLRLSCAASGFTFSSAAVHWVRQAPGKGLEWVGRIKSKASGGTTDYAAPVKGRFTISRDDSKNTLYLQMNSLKTEDTAVYYCARDSPSISSYSIPYFSGMDVWGQGTLVTVSS VL: DIQMTQSPSSLSASVGDRVTITCRASQGIRAWLNWYQQKPGKAPKLLIYAASSLQSGVPSRFSGSGSGTDFTLTISSLQPEDFATYYCHQYITHPPTFGQGTKVEIKR", "values": [
      {"measurement": "Kd", "setting": "NOV1401 [1]", "result": 0.97, "unit": "nM"},
      {"measurement": "aPTT percentage reversal, NOV1401/anti NOV1401 ratio 1/1 (n/n)", "setting": "NOV1401 [2]", "result": 10, "unit": "%"},
      {"measurement": "aPTT percentage reversal, NOV1401/anti NOV1401 ratio 1/3 (n/n)", "setting": "NOV1401 [2]", "result": 27, "unit": "%"},
      {"measurement": "aPTT percentage reversal, NOV1401/anti NOV1401 ratio 1/10 (n/n)", "setting": "NOV1401 [2]", "result": 39, "unit": "%"},
      {"measurement": "TGA percentage reversal, NOV1401/anti NOV1401 ratio 1/1 (n/n)", "setting": "NOV1401 [3]", "result": 33, "unit": "%"},
      {"measurement": "TGA percentage reversal, NOV1401/anti NOV1401 ratio 1/3 (n/n)", "setting": "NOV1401 [3]", "result": 53, "unit": "%"},
      {"measurement": "TGA percentage reversal, NOV1401/anti NOV1401 ratio 1/10 (n/n)", "setting": "NOV1401 [3]", "result": 60, "unit": "%"},
      {"measurement": "Kd", "setting": "NOV1401 [4]", "result": 0.31, "unit": "nM"}
    ]}
  ]
}
